Article PMC11780864, “RNA G-quadruplex structure-based PROTACs for targeted DHX36 protein degradation and gene activity modulation in mammalian cells”

Columns and labels:
[1] = target: T1, RHAU53 peptide (DHX36 fragment) (UniProt Q9H2U1); experiment: EMSA; EMSA and MST: 25 mM Tris-HCl pH 7.5, 150 mM KCl, 1 mM MgCl2, 37 C 30 min; 30 nM (EMSA) or 40 nM (MST) FAM-oligo; EMSA gel 10% native PAGE, 0.5x TBE, 4 C; conditions: label: 3'-FAM; for binding result: non-G4
T1 chain: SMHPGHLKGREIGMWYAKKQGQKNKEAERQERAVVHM

[2] = target: T1, RHAU53 peptide (DHX36 fragment); experiment: EMSA; Kd1, first shift; EMSA and MST: 25 mM Tris-HCl pH 7.5, 150 mM KCl, 1 mM MgCl2, 37 C 30 min; 30 nM (EMSA) or 40 nM (MST) FAM-oligo; EMSA gel 10% native PAGE, 0.5x TBE, 4 C; conditions: label: 3'-FAM; G4
[3] = target: T1, RHAU53 peptide (DHX36 fragment); experiment: competition; EMSA vs 30 nM FAM_dG4_A, 100 nM RHAU53; EMSA and MST: 25 mM Tris-HCl pH 7.5, 150 mM KCl, 1 mM MgCl2, 37 C 30 min; 30 nM (EMSA) or 40 nM (MST) FAM-oligo; EMSA gel 10% native PAGE, 0.5x TBE, 4 C; conditions: G4

| Binder | Kd [2] | further results |
| --- | --- | --- |
| GAGUUGCGGAGAGUGAGCCU (ssRNA, 5'-hexynyl clicked to AHPC-PEG2) [FAM_rG4 mut_A] |  | binding result [1]: no binding |
| GGGUUGCGGAGGGUGGGCCU (structured_RNA, 5'-hexynyl clicked to AHPC-C6) [FAM_rG4_A_C6] | 0.0703 ± 0.0093 µM |  |
| GGGUUGCGGAGGGUGGGCCU (structured_RNA, 5'-hexynyl) [FAM_rG4 (5' Hexynyl_hTERC rG4 WT_3' FAM)] |  | Kd ([1]; G4): 0.0667 ± 0.0165 µM |
| TTGTGTGTGTGTGTGTGT (ssDNA, 5'-hexynyl clicked to AHPC-PEG2) [FAM_dG4 mut_A] |  | binding result [1]: no binding |
| GGGUUGCGGAGGGUGGGCCU (structured_RNA, 5'-hexynyl clicked to pomalidomide-C6) [FAM_rG4_P_C6] | 0.161 ± 0.0262 µM |  |
| GGGUUGCGGAGGGUGGGCCU (structured_RNA, 5'-hexynyl clicked to AHPC-PEG2 (VHL ligand)) [FAM_rG4_A_PEG2 (FAM_rG4_A)] | 0.0675 ± 0.0132 µM |  |
| GGGUUGCGGAGGGUGGGCCU (structured_RNA, 5'-hexynyl clicked to pomalidomide-PEG2) [FAM_rG4_P_PEG2] | 0.132 ± 0.0255 µM |  |
| GGGUUGCGGAGGGUGGGCCU (structured_RNA, 5'-hexynyl clicked to pomalidomide-PEG1-C2) [FAM_rG4_P_PEG1-C2] | 0.174 ± 0.0353 µM |  |
| GGGUUGCGGAGGGUGGGCCU (structured_RNA, 5'-hexynyl clicked to AHPC-PEG2) [rG4_A (unlabelled)] |  | IC50 [3]: 0.1768 ± 0.001 µM |
| TTGGGTGGGTGGGTGGGT (structured_DNA, 5'-hexynyl clicked to AHPC-PEG2) [FAM_dG4_A (T95-2T)] | 0.317 ± 0.0451 µM |  |
